# The nanobody polyreactivity screen of Harvey et al. (2022)
# Assay: yeast display, Sf9 membrane polyspecificity reagent, FACS + sequencing; frameworks hold sequencing errors
# In short: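 Polyreactivity labels are assigned by the sorting gate from which each nanobody was recovered. The gates were low and high (top ~1%), set on anti-HA fluorescence for expression and streptavidin fluorescence for reagent binding. Before sorting, galactose-induced (36–48 hours) yeast display cells were stained for 1 hour at 4 °C with 10% biotinylated, detergent-solubilized Sf9 membrane reagent.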
row,Sequence,polyreactivity (PSR sort gate)
1,QVQLVESGGGLVQAGGSLRLSSAGSGSIFTGYAMGWYRPAPGKERELVAAIRTRGGSTYYADSVKGRFTISRDNAKNTVYLQMNSLKPEDNAVYYCANRYFGWYGNFDDWGQGTQVTVSS,high polyreactivity
2,QVQLVESGGGLVQAGGSLRLSCAASGRTFQYYAMGWYRQAPGKERELVAAISWSGGSTYYADSVKGRFTISRDNAKNTVYLQMNSLKPEVTAVYYCAASFRGQIVGYWGQGTQVTVSS,high polyreactivity
3,QVQLVESGGGLVQAGGSLRLSCAASGSTFYYYARGWYRQAPGKERELVAAISTSDGSTYYADSVKGRFTISRDNAKNTVYLQMNSLKPEDTAVYYCAADSYERFASYYYWGQGTQVTVSS,low polyreactivity
4,QVQLVESGGGLVQAGGSLSLSCAASGSTIVYYAMGWYRPAPRKERELVAAINYSSGSTYYADSVKGRFTISRDNSKKTVYLQMNSLKPEDRAVYYCATDLLYYQYYSEYDYWGQGTQVTVSS,high polyreactivity
5,QDQLEESGGGLVQAGGSLRLSCAASGFIFNHYAMGWYRQAPGKEREFVAAISWSGGSTYYADSVKGRFTISRDYAKNTVYLQMNSLKPEDTAVYYCAASYNGLWHGDYDYWGQGTQVTVSS,low polyreactivity
6,QVQLVESGGGLVQAGGSLRLSCAASGSIFGKYAMGWYRQAPGKERELVAAISKRGGSTYYADSVKGRFTISRDNAKNTVYLQMNSLKPEDTAVYYCAATPVYSGPYDYWGQGTQVTVSS,high polyreactivity
7,QVQLVESGGGIVQAGGSLRLSCAASGRTFVVNDMGWYRQAPGKERELVAAINYNAGSTFYADSVKGRFTISRDNAKNTVYLQMNSLKPEDTAVYYCATVVYGYVEYDYWGQGTEVTVSS,low polyreactivity
8,QVQLVESGGGLVQAGGSLRLSCAASGSIFDNNAMGSYRQAPGKERELVAGINWDDGSTYYADSVKGRFTISRDNAKNTVHLQMISLKPEETAVYYCARDVYVYRWNDFWAVWTWYDYWGQGTQVTVSS,low polyreactivity
9,QFQLVESVGGLVQAGGSLRLSCAASGRTFGNYAMGWYRQAPGKERELVAAISRSGGSTSYADSVKGRFTISRDNAKNTVYLQMNSLKPVDTAVYYCNAYFRGPRDYQYDYWGQGTQVTVSS,high polyreactivity
10,QFQRVESGGGLVQAGGSLRLTCAASGIIFVYNAMGWFRQATGKERELVAAINWRGDGTYYADSVKGRFTISRDNAKNTVYLQMNSLKQEDTAVYYCNAVRFRPNSHYRPVGYDYWGQGTQVTVSS,low polyreactivity
11,QVQLVESGGGLVQAGGSLRLSCAASGIIIYNYTMGWYRQAPGKERELVAAISRSGGRTYYADSVKGRFTISRDNAKNNVYLQMNSLKPEDTAVYYCAAAGYYHTYWGTMDFWGQGTQVTVSS,high polyreactivity
12,QVQLVESAGGLVQAGVSLRLSCAASGSIYPGSAMRWYRQAPGNERELVAAITFGGGITYYADSVKGRFTISRDNAKYTVYLQMNSLKPEDSAVYYCAAKSPRILLDYWGQGTQVTVSS,low polyreactivity
13,QVQLVESGGGLVQAGGSLRLSFAASGITFTVYTMGWNRQAHGKVRELVPTINSSGSTYYADSVKGRFTISRDNAKNRVYLQMNSLKPEDTAVYYCAAEYWINRDLMDYWGQGTQVTVSS,high polyreactivity
14,QVQLVESGGGLVQAGGSLRLSCAASGSTFGRYAMVWYRQAPGKEREFVAGITGRGGSTYYADSVKGRFTISRDNAKNTVYLQMKSLKPEVNAVYYSAAGYRVGYRYDYWGQCTQVTVSS,high polyreactivity
15,QVHLVESGGGLVKAGGSLRLSCAASGSTKNYVMGWYRQAPGKERELVAAISRGSSTYYADSVKGRFTISRDNAKNTVYLQMNSLKPEDTAVYYCAARGPWQAPYDYWGQGTQVTVSS,high polyreactivity
16,QVQLVESGGGLVQAGGSLRLSCAASGFTFTPNAMGWYRQAPGKERELVAITWSDGNTYYADSVKGRFTISRDNAKNTVYLQMNSLKPEDTAVYYCNADSTQGAWWPWLNDYWGQGTQVTVSS,high polyreactivity
17,QVQLVESGGGLVQAGGSLRLSCAASGSTFSPNAMGWYRQATGKERELVAAITYRGANTYYADSVKGRFTISRDNAMITVYFQLNSLKPEDTAVYYCAPEYAYHHVGFGYWRQGTQVTVSS,low polyreactivity
18,QVQLVESGGGLVQAGGSLRLSCAASGSTFVYNDMGWYRQAPGKERELVAVITSGGNTYYADSVKGRFTISRDNAKNTVYLQMNSLKPEDTAVYYCATRWYRFYPSDYWGQGTQVTVSS,low polyreactivity
19,QVQLVESGGGLVQAGGSLRLSCAASGSIFDGYAMGWYRQAPGKERELVAAISASGVRTYYADSVKGRFTISRDNAKNTVYLQMNSLKPEDTAVYYCAAAVYYGQSVWYYYWGQGTQVTVSS,high polyreactivity
20,QVQLVESGGGLVQAGGSLRLSCAASGSIFSRYAMGWYRQAPGKERELVAAITWRGGSTYYADSVKGRFTISRDNAKNTVYLQMNSLKPEDTAVYYCAKDRWTYAFRVGYGYWGQGTQVTVSS,high polyreactivity
21,QVQLVESGGGLVQAGGSLRLSCAASGLIFRRYAMGWYRQAPGKERELVAVISSGGRTYYADSVKGRFTISRDNAKNTVFLQMNSLKPEDTAVYYCAARTRSYWGTYGSYHYDYWGQGTQVTVSS,high polyreactivity
22,QVQLVESGGGLVQAGGSLRLSCAASGITFYRKAMGWYRPAPGKEREFVAAINYGGSSTRYADSVKGRFTISRDYAKNTVYLQMNSLKPEDTAVYYCAVEKRYPRRRYDYWGQGTQVTVSS,low polyreactivity

row,Sequence,polyreactivity (PSR sort gate)
1,QVQHVESGAGIVQAGGSLRLSCAASGSTFKRYAMGWYRQAPGKERELVAAITWRGGSTYYADSVKGRFTISRDNAKNTVYLLMNSLKPDDTAVYYCASDYVYRYDYWGQGTQVTVSS,high polyreactivity
2,QVQLQESGGGLEQAGGSLRLSCAASGIIFDNPNMGWYRQAPGKERELVATINSGATTNYADSVKGRFTISRDNAKNTVYLQMNSLIPEDTAVYYCAVDLSPTYFYYWGQGTQVTVSS,high polyreactivity
3,QVQLVESGGGLVQEGGSLRLSCAASGTIFGIYAMGWYRKAPGKERELVAAISKSGGGTYYADSVKGRFTISRDNSKNTVFLQMNSLKPEDTAVNYCNVYVSKYRRFEYWGQGTQVTVSS,high polyreactivity
4,QVQLVESGGGLVQAGGSLRLSCAASGSTFVWYVMGWYRQAPGNERELVAAISRSGGTTFYADSVKGRFTISRANAKNTVYLQMNSLKPEDTAVYYCAAEDVAYRPGYDYWGQGTQVTVSS,high polyreactivity
5,QFQLVESGGGLVQAVGSLRLSCAASGITFYTYAMGWYRHAPGKESDFVSAITRSGGSTYYADSVKGRFTFSRDNAKNTVYLQMIILKPEDTAVYYCAVDIYFWSYGWWGPYDYWGQGTQVTVSS,low polyreactivity
6,QVQLVESGGGLVQAGGSLRLSCAASGFTFGLYAMGWYRQAPGKERELVAVISSSGGSTYDADSVKGRFTISRDNAKNTVYLQMNSLKPEETAVYYCAAEWHDYKFDVTYDYWGQGTQVTVSS,low polyreactivity
7,QVQLVESGGGLVHAGGSLRLSCAPSGFTLVSYAMGWHRKAPGKEREFDAGITDSGGSTYYADSVKGRYTITRDNAKNTFYLQMNSLKPVDTAVYYCKADFAPWDKQDYPYDYDYWGQGTQVTVSS,low polyreactivity
8,QVQLVESGGGLVQAGGSLRLSCAASGFIFYLYAMGWYRPAPGKERELVAAISRRGGSTYYADSVKGRFTISRDNAKNTVYLQMNSLKPEDTAVYYCAAYGDDGRDYWGQGTQVTVSS,high polyreactivity
9,QVQLVESGGGLVQAGGSLRLSCAAYGFTFWRNAMGWYIQAPGKERELVAAISASGGSTYYASSVKGRFTISRDNAKNTVYLQMNSLKPEDTAVYYCNAGEWAISEWGWVVDYDYWGQGTQVTVSS,low polyreactivity
10,QFQLVESGGGLVQAGGSLRLSCAASGRIFRVNAKGWYRPAPGKERELVAGITQGDGSTYYADSVKGRFTISRDNAKNTVYLQMNSLKPEDTAVYYCAASTGPDRQFDSWGQGTQVTVSS,low polyreactivity
11,QVQLVESGGGLVQAGGSLRLSCAASGSTFSPYAMGWYRPAPGKERELVAAITSGGSTYYADSVKGRFTISRDNAKNTVYLQMNSLKPEDTAVYYCNVVYIRVRRYNYWGQGTQVTVSS,high polyreactivity
12,QVQLVESGGGLVQAGGSLRLSCAASGITFKFYAMGWYRQAPGKERELVAVITSGGSTYYADSVKGRFTISRDNAKNTVYLQMTSLKPEDTAVFYCASGGNGLYRAYPFYYWGQGTQVTVSS,high polyreactivity
13,QVQLVESGGGLVQAGGSLRISCAASGSTFSNYAMGWYRQAPGKERELVAAINSGGRTKYADSVKGRFTISRDNAKNSVYLQMNSLKPEDTAVYYCAKRIENFSGSLAGRWYDYWGQGTQVTVSS,high polyreactivity
14,QVQLVESGGRLVQAGGSLRLSCAASGYIFFHYSRGWYRQAPGTERELVAANTSGGSTNYADSVKGRFTMSRDNAKNTDYLQMNSLKPEDTAVYYCAARGWINSKRLYALWGFDYWGQGTQVTVSS,low polyreactivity
15,HVQLQESGGGLVLAGGSLRLSCPASGNIVVYSYMGWYRQAPGKAREFVAAIGAGSTTYYADSVSRFTISRDNAKNSVYLQMNSLKQVDTAVYYCSVEFQYAGFWYWGQGTQVTVSS,low polyreactivity
16,QVQLVESGGGLVQAGGSLRLSCAASGSTFTGYAMGWYRQAPGTERELVATINSGVSTYADSVKGRFTISRDNAKNTVYLQMNSLKPEDTAVYYCAADGLYYYQSGWIDAGYYTNGYWGQGTQVTVSS,low polyreactivity
17,QDQLVESGVGIVQAGGRLRLSCAASGRTFGRNAMGWYIQAPGKERELVATISRSGGSTNYADSVKGRFTISRDNAKNTVYLQMNSLKPEDTAVYYCAKARPFSYDYWGLGTQVTVSS,high polyreactivity
18,QVQLVESGGGLVQAGGSLRLSCAASGSTFQANAMAWYRPAPGKERELVAAISSRGGITYYADSVKARFTISRDNAKNTVYLQMNSLKPEDTAVYYCNALPRSTYRQGLGVRLYYWGQGTQVTVSS,high polyreactivity
19,QVQLVESGGGLVQAGGSLRLSCAASGNTFLVNVMGWYRQAPGKERELVASITINDGSTYYADSVKGRFTISRDNAKNTVYLQMNSLKPDDTAVYYCAADGVVPGRFFWPAHEYDYWGQGTQVTVSS,low polyreactivity
20,QVQLVESGGGLVQAGGSLRLSCAASGFTLFYNAMGWYRQAPGKERELVAAITARGGGTYYADSVKGRFTISRDNAKNTVYLQMNSLKPEDTAVYYCNAGQNQRVDRTDPYDYWGQGTQVTVSS,low polyreactivity
21,QVQLVESGGGLVQAGGSLRLSCAASGFIFGGNAMGWYRQAPGKVRELVAAITARSGSTYYADSVKGRFTISRDNAKNTVYLQMNSLKPEDTAVYYCAKGSLGSTRYYYWGQGTQVTVSS,low polyreactivity
